Results taken from patent publication US20230002480A1.

Legend:
Experiment in all cases: cell-based or functional assay
[1] = target: HIV-1 Env of pseudovirus HIV-16845-2.22 (HIV-1)
[2] = target: HIV-1 Env of pseudovirus Ce2010_F5 (HIV-1)
[3] = target: HIV-1 Env of pseudovirus Ce1172_H1 (HIV-1)
[4] = target: HIV-1 Env of pseudovirus 1054_07_TC4_1499 (HIV-1)
[5] = target: HIV-1 Env of pseudovirus 263-8 (HIV-1)
[6] = target: HIV-1 Env of pseudovirus 928-28 (HIV-1)
[7] = target: HIV-1 Env of pseudovirus ZM247v1(Rev-) (HIV-1)
[8] = target: HIV-1 Env of pseudovirus MS208.A1 (HIV-1)
[9] = target: HIV-1 Env of pseudovirus CNE17 (HIV-1)
[10] = target: HIV-1 Env of pseudovirus 3301.v1.c24 (HIV-1)
[11] = target: HIV-1 Env of pseudovirus X2088_c9 (HIV-1)
[12] = target: HIV-1 Env of pseudovirus PVO.4 (HIV-1)
[13] = target: HIV-1 Env of pseudovirus 6041.v3.c23 (HIV-1)
[14] = target: HIV-1 Env of pseudovirus BJOX028000.10.3 (HIV-1)
[15] = target: HIV-1 Env of pseudovirus 231966.c02 (HIV-1)
[16] = target: HIV-1 Env of pseudovirus CNE19 (HIV-1)
[17] = target: HIV-1 Env of pseudovirus ZM109F.PB4 (HIV-1)
[18] = target: HIV-1 Env of pseudovirus Ce1086_B2 (HIV-1)
[19] = target: HIV-1 Env of pseudovirus A07412M1.vrc12 (HIV-1)
[20] = target: HIV-1 Env of pseudovirus Q461.e2 (HIV-1)
[21] = target: HIV-1 Env of pseudovirus C2101.c01 (HIV-1)
[22] = target: HIV-1 Env of pseudovirus WEAU_d15_410_787 (HIV-1)
[23] = target: HIV-1 Env of pseudovirus QH0692.42 (HIV-1)
[24] = target: HIV-1 Env of pseudovirus Q842.d12 (HIV-1)
[25] = target: HIV-1 Env of pseudovirus Ce0682_E4 (HIV-1)
[26] = target: HIV-1 Env of pseudovirus 620345.c01 (HIV-1)
[27] = target: HIV-1 Env of pseudovirus Ce2060_G9 (HIV-1)
[28] = target: HIV-1 Env of pseudovirus P1981_C5_3 (HIV-1)
[29] = target: HIV-1 Env of pseudovirus 6535.3 (HIV-1)
[30] = target: HIV-1 Env of pseudovirus 211-9 (HIV-1)
[31] = target: HIV-1 Env of pseudovirus Du156.12 (HIV-1)
[32] = target: HIV-1 Env of pseudovirus Q769.d22 (HIV-1)
[33] = target: HIV-1 Env of pseudovirus CNE8 (HIV-1)
[34] = target: HIV-1 Env of pseudovirus Q259.d2.17 (HIV-1)
[35] = target: HIV-1 Env of pseudovirus CNE5 (HIV-1)
[36] = target: HIV-1 Env of pseudovirus ZM249M.PL1 (HIV-1)
[37] = target: HIV-1 Env of pseudovirus CNE58 (HIV-1)

With VRC07 (antibody) the neutralization IC50 [1] was 1.21 µg/mL, the neutralization IC80 [1] was 6.15 µg/mL and the neutralization IC50 [2] was 0.131 µg/mL. For the same substance, the neutralization IC80 [2] was 0.48 µg/mL, the neutralization IC50 [3] was over 50 µg/mL and the neutralization IC80 [3] was over 50 µg/mL. It also gave a neutralization IC50 [4] of 0.239 µg/mL, a neutralization IC80 [4] of 1.46 µg/mL and a neutralization IC50 [5] of 0.103 µg/mL. It also gave a neutralization IC80 [5] of 0.282 µg/mL, a neutralization IC50 [6] of 0.278 µg/mL and a neutralization IC80 [6] of 0.957 µg/mL. For the same substance, the neutralization IC50 [7] was 0.041 µg/mL, the neutralization IC80 [7] was 0.189 µg/mL and the neutralization IC50 [8] was 0.12 µg/mL. The neutralization IC80 [8] was 0.425 µg/mL, the neutralization IC50 [9] was 0.136 µg/mL and the neutralization IC80 [9] was 0.651 µg/mL. It also gave an IC50, titer in TZM.bl cells [10] of 0.027 µg/mL, an IC80, titer in TZM.bl cells [10] of 0.073 µg/mL and an IC50, titer in TZM.bl cells [11] of over 50 µg/mL. It also gave an IC80, titer in TZM.bl cells [11] of over 50 µg/mL, a neutralization IC50 [12] of 0.063 µg/mL and a neutralization IC80 [12] of 0.226 µg/mL. It also gave an IC50, titer in TZM.bl cells [13] of 0.018 µg/mL, an IC80, titer in TZM.bl cells [13] of 0.058 µg/mL and an IC50, titer in TZM.bl cells [14] of 0.011 µg/mL. The IC80, titer in TZM.bl cells [14] was 0.069 µg/mL, the IC50, titer in TZM.bl cells [15] was 0.105 µg/mL and the IC80, titer in TZM.bl cells [15] was 0.471 µg/mL. The neutralization IC50 [16] was 0.092 µg/mL, the neutralization IC80 [16] was 0.232 µg/mL and the neutralization IC50 [17] was 0.112 µg/mL. For the same substance, the neutralization IC80 [17] was 0.389 µg/mL, the neutralization IC50 [18] was 0.128 µg/mL and the neutralization IC80 [18] was 0.84 µg/mL. The IC50, titer in TZM.bl cells [19] was 0.11 µg/mL, the IC80, titer in TZM.bl cells [19] was 0.353 µg/mL and the neutralization IC50 [20] was 0.282 µg/mL. For the same substance, the neutralization IC80 [20] was 1.02 µg/mL, the IC50, titer in TZM.bl cells [21] was 0.238 µg/mL and the IC80, titer in TZM.bl cells [21] was 1.4 µg/mL. It also gave a neutralization IC50 [22] of 0.034 µg/mL, a neutralization IC80 [22] of 0.115 µg/mL and a neutralization IC50 [23] of 0.5 µg/mL. The neutralization IC80 [23] was 1.86 µg/mL, the neutralization IC50 [24] was 0.015 µg/mL and the neutralization IC80 [24] was 0.051 µg/mL. The neutralization IC50 [25] was 0.039 µg/mL, the neutralization IC80 [25] was 0.239 µg/mL and the IC50, titer in TZM.bl cells [26] was over 50 µg/mL. The IC80, titer in TZM.bl cells [26] was over 50 µg/mL, the neutralization IC50 [27] was 0.085 µg/mL and the neutralization IC80 [27] was 0.422 µg/mL. The IC50, titer in TZM.bl cells [28] was 0.213 µg/mL, the IC80, titer in TZM.bl cells [28] was 0.609 µg/mL and the neutralization IC50 [29] was 0.169 µg/mL. For the same substance, the neutralization IC80 [29] was 0.517 µg/mL, the IC50, titer in TZM.bl cells [30] was 5.92 µg/mL and the IC80, titer in TZM.bl cells [30] was 38 µg/mL. For the same substance, the neutralization IC50 [31] was 0.041 µg/mL, the neutralization IC80 [31] was 0.149 µg/mL and the neutralization IC50 [32] was 0.018 µg/mL. For the same substance, the neutralization IC80 [32] was 0.087 µg/mL, the IC50, titer in TZM.bl cells [33] was 0.45 µg/mL and the IC80, titer in TZM.bl cells [33] was 1.56 µg/mL. It also gave a neutralization IC50 [34] of 0.024 µg/mL, a neutralization IC80 [34] of 0.1 µg/mL and an IC50, titer in TZM.bl cells [35] of 0.138 µg/mL. For the same substance, the IC80, titer in TZM.bl cells [35] was 0.524 µg/mL, the neutralization IC50 [36] was 0.041 µg/mL and the neutralization IC80 [36] was 0.145 µg/mL. It also gave a neutralization IC50 [37] of 0.11 µg/mL and a neutralization IC80 [37] of 0.298 µg/mL.
